Data as given in patent US8013137B2, “Modified enteropeptidase protein” (National University Corporation Hokkaido University, priority 2006, dated 2011).

Experiments:
Type in all cases: biochemical
GD4K-βNA = assay: EP activity and kinetic study with specific substrate GD4K-βNA; details: for Km / kcat: substrate GD4K-βna
Procedure: (A) Active recombinant EP proteases were assayed using a GD4K-βNA (SEQ ID NO: 6) substrate as a substrate. Bovine (Nvg), bovine EP protease available from Novagen; Bovine (Neb), bovine EP protease available from NEB. (B) Active recombinant EP proteases were assayed using various synthetic peptide substrates. (C) Active EP proteases were analyzed by gelatin zymography. (D) Fibronectin (4 μg) was incubated with active EPs (100 ng) at 37° C. for 12 h. (E) Laminin ((10 μg) was incubated with active recombinant EPs (100 ng) at 37° C. for 12 h. (F) Two μg of the control protein containing the D4K site (SEQ ID NO: 1) was incubated with active recombinant EPs (100 ng) at 37° C. for 1 h.
(A) The purity of purified recombinant Medaka EP-1 and EP-2 protease was assessed by SDS-PAGE. Lane 1, Medaka EP fusion protein; lane 2, Medaka EP protease treated with immobilized trypsin; lane 3, Medaka EP protease purified using a resource Q column. (B) The enzyme activities of EP proteases were determined at various pHs using GD4K-βNA (SEQ ID NO: 6) as a substrate. (C) Recombinant Medaka trypsinogen was incubated at 37° C. with EPs for 15, 30 and 45 min. After incubation, samples were analyzed by SDS-PAGE and visualized by CBB staining (upper panel). The relative amount of the active form of Medaka trypsin at each time point were calculated based on the results shown in the upper panel (lower panel). The results are presented as the means (±SD) of three separate experiments.
(§1) EP activity was routinely determined using the specific substrate Gly-Asp-Asp-Asp-Asp-Lys-β-naphthylamide (GD4K-βNA) (SEQ ID NO: 6) (Sigma) according to the method of Mikhailova and Rumsh (Mikhailova et al., FEBS Lett., 442:226-230 (1999)). Enzyme activity for various 4-methylcoumaryl-7-amide (MCA)-containing peptide substrates was determined by the method of Barrett (Barrett et al., J., Biochem. J., 187:909-912 (1980)). For kinetic studies, initial velocities, extrapolated from the plot of product versus time, were transformed into double-reciprocal plots (Lineweaver et al., J. Am. Chem. Soc., 56:658-663 (1934)). The maximum velocities (Vmax) and Km and kcat values were obtained from the intercepts of these plots. For all experiments, the results of at least three separate determinations are shown.

[1] = tested on: GD4K-βNA and the three MCA-containing substrates; assay: Specific activities of wild-type and mutant EP protease using synthetic peptide substrates (FIG. 3A)
Procedure: (A) The specific activities of wild-type (EP-1) and mutant EP protease were determined using synthetic peptide substrates. (B) High-molecular-weight (HMW) kininogen (5 μg) was incubated with active EP proteases (100 ng) at 37° C. for 2 h and analyzed by SDS-PAGE. (C) Fibrinogen (10 μg) was incubated with active EP proteases (100 ng) at 37° C. for 12 h and analyzed by SDS-PAGE.
as §1

Pro-Phe-Arg-MCA = assay: Activity assay of EP proteases and EP-treated hK8 samples with Pro-Phe-Arg-MCA (FIG. 4B middle)
Procedure: (A) A recombinant fusion protein of Medaka gelatinase A (5 μg) was separately incubated with active EP proteases (100 ng) at 37° C. for 1 h, and analyzed by SDS-PAGE. (B) A recombinant fusion protein of human kallikrein 8 (hK8) (5 μg) was incubated with active EP proteases (100 ng) at 37° C. for 2 h. After incubation, the samples were analyzed by SDS-PAGE (upper panel), or assayed for activity with Pro-Phe-Arg-MCA (middle panel), or Boc-Glu(OBzl)-Ala-Arg-MCA (lower panel). […] The samples were then analyzed by SDS-PAGE/Western blotting using anti-human tPA antibody (upper panel) or anti-His probe antibody (lower panel). The position of sctPA (58- and 61-kDa) detected with the antibodies is shown.
as §1
Next, a 35.5-kDa protein of human kallikrein 8 (hK8) in the same E. coli expression system was synthesized. Digestion with Medaka wild-type and mutant EP proteases generated 31.5-kDa active hK8 by cleaving the D4K sequence (SEQ ID NO: 1) (FIG. 4B, Top). […] The EP protease-treated samples were directly assayed for hK8 activity using Pro-Phe-Arg-MCA, a good synthetic peptide substrate of hK8 (Rajapakse et al., FEBS Lett., 579:6879-6884 (2005)). […] The substrate Boc-Glu(OBzl)-Ala-Arg-MCA, which is slightly cleaved by active hK8, was rapidly hydrolyzed with the samples treated with mammalian, but not Medaka, EP proteases (FIG. 4B, Bottom).

Molecule | pH of maximal activity for GD4K-βNA (GD4K-βNA; serine protease domain, FIG. 8B) | enzyme activity for synthetic peptide substrates compared with the wild-type enzyme [1] | Km (GD4K-βNA) [µM] | kcat (GD4K-βNA) [min⁻¹] | enzyme activity of the EP protease itself with Pro-Phe-Arg-MCA (Pro-Phe-Arg-MCA) | Pro-Phe-Arg-MCA-hydrolyzing activity of hK8 fusion protein samples treated with EP protease (Pro-Phe-Arg-MCA)
EP-2: recombinant serine protease domain of Medaka enteropeptidase-2 (AB272105) (protein, Oryzias latipes) MKRRLTNLEVLLTVTTSLFAVCCVCLIVVSCIGLKPEGAAEPVQLIGQMVITAGAAFSEELRNSSSHLFKSLAFDVQQLVSDAFGASELRLLYRSFRVLYFRPGSIAVTFDLEFNQQIDLNEVKQQLGEGLQQIEDGALVIDVDSIQITEKPSSTTPEPTSTTGHITTETMPITGHTTPAATPTAASCPPDHSLCWDRSTCVLTDVLCDGVSDCPDASDENSSRCATTCDGQFVLGGPNGTFRSSETETYRNNSNCRWIIRMDGGLSVQVNFHHFETEEYSDVLKLYEGVGPHKQLAAELSGPSPPGTVLLLNNQVTVEFTSDGVNDLSGFRASYVAVNTSSLSNQEKLSCSFDQGFCFWRQLQDSFDTWIRTNVPTFPPLTGPNFDHTFGNSSGFYIVTSLSPGQWLKSFVINSLPLAPSSHPTCLSFWYHMFGEDVYRLRVLLRPSQPELTEVVLFHKEGNFGDNWNYAQITLNLSTESTVVFEAQKEGGNQNDIALDDISLRSEGCGPAPPEPTNVPLPTTAAPIPPDCGGPFDLWEPNSTFTSPNYPQSYGDGAECLWTLHAEKGQNIQLHFLDFDVEATYDVVEVRDGAGLNSTLLAVLSGSDGPTRDLYSTDNQMTVWFYTDSGGFGRGFRANFTSGVNLGSQAPCTNGQFQCQTGDCIHGDRQCDGVADCPDGYDEADCVALQVNGSHRLHFLLLRSLLTVCADTWDSELSDFTCQYLGYRSGEESLQSVLPQDAAFAVVTVSSNGTLETQVRETCSSGEVISLNCSNQPCGQRQVYNHGDQSENSKENNGVPRVVGGVNAEKGAWPWMVSLHWRGRHGCGASLIGRDWLLTAAHCVYGKNTHLQYWSAVLGLHAQSSMNSQEVQIRQVDRIIINKNYNRRTKEADIAMMHLQQPVNFTEWVLPVCLASEGQHFPAGRRCFIAGWGRDAEGGSLPDILQEAEVPLVDQDECQRLLPEYTFTSSMLCAGYPEGGVDSCQGDSGGPLMCLEDARWTLIGVTSFGVGCGRPERPGAYARVSAFASWIAETRRSSFSDLD | 8 | – | – | – | – | –
T105E: Medaka EP-1 protease mutant, substitution T105E (protein) CGQRQVYNSKENNGVPRVVGGVNAEKGAWPWMVSLHWRGRHGCGASLIGRDWLLTAAHCVYGKNTHLQYWSAVLGLHAQSSMNSQEVQIRQVDRIIINKNYNRREKEADIAMMHLQQPVNFTEWVLPVCLASEDQHFPAGRRCFIAGWGRDAEGGSLPDILQEAEVPLVDQDECQRLLPEYTFTSSMLCAGYPEGGVDSCQGDSGGPLMCLEDARWTLIGVTSFGVGCGRPERPGAYARVSAFTSWIAETRRSSFSDLD | – | reduced enzyme activity for synthetic peptide substrates | 400 | 260 | – | –
F144S: Medaka EP-1 protease mutant, substitution F144S (protein) CGQRQVYNSKENNGVPRVVGGVNAEKGAWPWMVSLHWRGRHGCGASLIGRDWLLTAAHCVYGKNTHLQYWSAVLGLHAQSSMNSQEVQIRQVDRIIINKNYNRRTKEADIAMMHLQQPVNFTEWVLPVCLASEDQHFPAGRRCSIAGWGRDAEGGSLPDILQEAEVPLVDQDECQRLLPEYTFTSSMLCAGYPEGGVDSCQGDSGGPLMCLEDARWTLIGVTSFGVGCGRPERPGAYARVSAFTSWIAETRRSSFSDLD | – | reduced enzyme activity for synthetic peptide substrates | – | – | – | –
P193E: Medaka EP-1 protease mutant, substitution P193E (protein) CGQRQVYNSKENNGVPRVVGGVNAEKGAWPWMVSLHWRGRHGCGASLIGRDWLLTAAHCVYGKNTHLQYWSAVLGLHAQSSMNSQEVQIRQVDRIIINKNYNRRTKEADIAMMHLQQPVNFTEWVLPVCLASEDQHFPAGRRCFIAGWGRDAEGGSLPDILQEAEVPLVDQDECQRLLPEYTFTSSMLCAGYEEGGVDSCQGDSGGPLMCLEDARWTLIGVTSFGVGCGRPERPGAYARVSAFTSWIAETRRSSFSDLD | – | reduced enzyme activity for synthetic peptide substrates | 400 | 290 | none of the Medaka EP proteases (wild-type EP-1, K63R, E173A, or E193A) showed any significant enzyme activity | –
F144A: Medaka EP-1 protease mutant, substitution F144A (protein) CGQRQVYNSKENNGVPRVVGGVNAEKGAWPWMVSLHWRGRHGCGASLIGRDWLLTAAHCVYGKNTHLQYWSAVLGLHAQSSMNSQEVQIRQVDRIIINKNYNRRTKEADIAMMHLQQPVNFTEWVLPVCLASEDQHFPAGRRCAIAGWGRDAEGGSLPDILQEAEVPLVDQDECQRLLPEYTFTSSMLCAGYPEGGVDSCQGDSGGPLMCLEDARWTLIGVTSFGVGCGRPERPGAYARVSAFTSWIAETRRSSFSDLD | – | at an elevated rate when compared with the wild-type enzyme | – | – | – | –
E173K: Medaka EP-1 protease mutant, substitution E173K (protein) CGQRQVYNSKENNGVPRVVGGVNAEKGAWPWMVSLHWRGRHGCGASLIGRDWLLTAAHCVYGKNTHLQYWSAVLGLHAQSSMNSQEVQIRQVDRIIINKNYNRRTKEADIAMMHLQQPVNFTEWVLPVCLASEDQHFPAGRRCFIAGWGRDAEGGSLPDILQEAEVPLVDQDKCQRLLPEYTFTSSMLCAGYPEGGVDSCQGDSGGPLMCLEDARWTLIGVTSFGVGCGRPERPGAYARVSAFTSWIAETRRSSFSDLD | – | reduced enzyme activity for synthetic peptide substrates | – | – | – | –
Bovine (Neb): bovine EP protease available from NEB (protein) IVGGSDSREGAWPWVVALYFDDQQVCGASLVSRDWLVSAAHCVYGRNMEPSKWKAVLGLHMASNLTSPQIETRLIDQIVINPHYNKRRKNNDIAMMHLEMKVNYTDYIQPICLPEENQVFPPGRICSIAGWGALIYQGSTADVLQEADVPLLSNEKCQQQMPEYNITENMVCAGYEAGGVDSCQGDSGGPLMCQENNRWLLAGVTSFGYQCALPNRPGVYARVPRFTEWIQSFLH | – | – | 500 | 1500 | considerable enzyme activities were detected | –
Bovine (Nvg): bovine EP protease available from Novagen (protein) IVGGSDSREGAWPWVVALYFDDQQVCGASLVSRDWLVSAAHCVYGRNMEPSKWKAVLGLHMASNLTSPQIETRLIDQIVINPHYNKRRKNNDIAMMHLEMKVNYTDYIQPICLPEENQVFPPGRICSIAGWGALIYQGSTADVLQEADVPLLSNEKCQQQMPEYNITENMVCAGYEAGGVDSCQGDSGGPLMCQENNRWLLAGVTSFGYQCALPNRPGVYARVPRFTEWIQSFLH | – | – | 800 | 770 | – | very low activity
